Reference: US20250075006A1 (SHANDONG SIMCERE BIOPHARMACEUTICAL, published 2025)
Like-named read-outs stand apart in the source and are kept apart here.

Key:
[1] = biological target: T1, Human GUCY2C ECD (his-tagged human GUCY2C protein extracellular domain fusion protein) (human, UniProt P25092 24-430); assay: ELISA, plate coated with human GUCY2C-his, OD450
T1 construct: also called human GUCY2C-his; human GUCY2C-His
Experimental: (§1) To assay the binding activity of the humanized antibodies to human GUCY2C-his protein, a human GUCY2C-his protein was diluted with PBS to a final concentration of 2 μg/mL and then added to a 96-well ELISA plate at 50 μL/well. The plate was sealed with a plastic film and incubated at 4° C. overnight. The next day, the plate was washed 2 times with PBST, and a blocking buffer [PBS+2% (w/w) BSA] was added for blocking at room temperature for 2 h. The blocking buffer was discarded, and the plate was washed 2 times with PBST. An antibody to be tested or a control antibody diluted in a 1:3 gradient from a starting concentration of 100 nM was added at 50 μL/well. After incubation at 37° C. for 1 h, the plate was washed 3 times with PBST. A horseradish peroxidase (HRP)—labeled secondary antibody (purchased from Merck, Cat. No. AP113P) was added for incubation at 37° C. for 1 h, and the plate was washed 5 times with PBST. A TMB substrate was added at 50 µL/well for incubation at room temperature for 5-10 min, and then a stop solution (1.0 M HCl) was added at 50 μL/well. OD450 nm values were read using an ELISA plate reader (Multimode Plate Reader, EnSight, purchased from Perkin Elmer).

[2] = biological target: T1, Human GUCY2C ECD (his-tagged human …); assay: ELISA, plate coated with human GUCY2C-his, OD450; remark: listed apart in the source
Experimental: as §1

[3] = biological target: T1, Human GUCY2C ECD (his-tagged human …); assay: ELISA, plate coated with human GUCY2C-his, OD450; remark: listed apart in the source
Experimental: as §1

[4] = biological target: T2, Cyno GUCY2C ECD (his-tagged cynomolgus monkey GUCY2C protein extracellular domain fusion protein) (cynomolgus monkey, UniProt P25092 24-430 (human entry)); assay: ELISA, plate coated with monkey GUCY2C-his, OD450
T2 construct: also called monkey GUCY2C-his; monkey GUCY2C-His
T2 chain: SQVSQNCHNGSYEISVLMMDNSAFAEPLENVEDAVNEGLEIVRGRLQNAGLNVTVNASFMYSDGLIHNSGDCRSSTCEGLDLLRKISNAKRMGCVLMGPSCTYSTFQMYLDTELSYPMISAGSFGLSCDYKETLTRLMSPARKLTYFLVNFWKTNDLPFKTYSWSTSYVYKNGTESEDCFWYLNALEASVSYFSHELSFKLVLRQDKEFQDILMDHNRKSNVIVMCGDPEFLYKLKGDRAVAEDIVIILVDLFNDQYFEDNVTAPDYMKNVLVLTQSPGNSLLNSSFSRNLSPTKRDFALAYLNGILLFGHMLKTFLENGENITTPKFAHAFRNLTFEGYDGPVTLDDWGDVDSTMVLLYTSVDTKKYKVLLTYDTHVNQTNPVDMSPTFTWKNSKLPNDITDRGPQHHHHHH

[5] = biological target: T2, Cyno GUCY2C ECD (his-tagged cynomolgus …); assay: ELISA, plate coated with monkey GUCY2C-his, OD450
[6] = biological target: T3, human GUCY2C protein, full length, on cells (human, UniProt P25092 24-1073); assay: FACS on 293T-hGUCY2C cells, MFI
T3 construct: whole, on cells; also called endogenous tumor cells HT55
Experimental: (§2) Then a complete medium was added to stop the digestion, and the cells were blown into a single cell suspension. After counting, the cells were centrifuged, and the cell pellet was resuspended to 2×10⁶ cells/mL in an FACS buffer (PBS+2% fetal bovine serum), and added to a 96-well FACS reaction plate at 100 μL/well. The plate was centrifuged, and the supernatant was discarded. An antibody sample to be tested (diluted in a 3-fold gradient from a starting concentration of 100 nM) was added at 50 μL/well and uniformly mixed with the cells, and the mixture was incubated at 4° C. for 1 h. […] The results were tested and analyzed by FACS (FACS Canto™, purchased from BD) after the plate was centrifuged and washed 3 times with a PBS buffer and resuspended with 100 μL of PBS. Data analysis was performed by software (FlowJo) to obtain the mean fluorescence intensity (MFI) of the cells. Then, analysis was performed by software (GraphPad Prism8), data were fitted, and EC50 values were calculated.

[7] = biological target: T3, human GUCY2C protein, full length, on …; assay: FACS on 293T-hGUCY2C cells, MFI; remark: listed apart in the source
Experimental: as §2, with “5-fold” for “3-fold”, “calculated. As shown in A-C in FIG. 14, PF1608-hIgG1 binds strongly to GUCY2C at the protein level, but weakly at the cellular level. The humanized antibodies of the present application are all capable of binding effectively to recombinant cells expressing human GUCY2C protein and substantially maintain the equivalent binding ability of the recombinant antibodies.” for “calculated.”

[8] = biological target: T3, human GUCY2C protein, full length, on …; assay: FACS on 293T-hGUCY2C cells, MFI; remark: listed apart in the source
Experimental: as §2, with “5-fold” for “3-fold”, “calculated. As shown in A-C in FIG. 14, PF1608-hIgG1 binds strongly to GUCY2C at the protein level, but weakly at the cellular level. The humanized antibodies of the present application are all capable of binding effectively to recombinant cells expressing human GUCY2C protein and substantially maintain the equivalent binding ability of the recombinant antibodies.” for “calculated.”

[9] = biological target: T3, human GUCY2C protein, full length, on …; assay: FACS on HT55 tumor cells (endogenous GUCY2C), MFI
[10] = biological target: T3, human GUCY2C protein, full length, on …; assay: FACS on HT55 tumor cells (endogenous GUCY2C), MFI; remark: listed apart in the source

T3 sequence (P25092 24-1073): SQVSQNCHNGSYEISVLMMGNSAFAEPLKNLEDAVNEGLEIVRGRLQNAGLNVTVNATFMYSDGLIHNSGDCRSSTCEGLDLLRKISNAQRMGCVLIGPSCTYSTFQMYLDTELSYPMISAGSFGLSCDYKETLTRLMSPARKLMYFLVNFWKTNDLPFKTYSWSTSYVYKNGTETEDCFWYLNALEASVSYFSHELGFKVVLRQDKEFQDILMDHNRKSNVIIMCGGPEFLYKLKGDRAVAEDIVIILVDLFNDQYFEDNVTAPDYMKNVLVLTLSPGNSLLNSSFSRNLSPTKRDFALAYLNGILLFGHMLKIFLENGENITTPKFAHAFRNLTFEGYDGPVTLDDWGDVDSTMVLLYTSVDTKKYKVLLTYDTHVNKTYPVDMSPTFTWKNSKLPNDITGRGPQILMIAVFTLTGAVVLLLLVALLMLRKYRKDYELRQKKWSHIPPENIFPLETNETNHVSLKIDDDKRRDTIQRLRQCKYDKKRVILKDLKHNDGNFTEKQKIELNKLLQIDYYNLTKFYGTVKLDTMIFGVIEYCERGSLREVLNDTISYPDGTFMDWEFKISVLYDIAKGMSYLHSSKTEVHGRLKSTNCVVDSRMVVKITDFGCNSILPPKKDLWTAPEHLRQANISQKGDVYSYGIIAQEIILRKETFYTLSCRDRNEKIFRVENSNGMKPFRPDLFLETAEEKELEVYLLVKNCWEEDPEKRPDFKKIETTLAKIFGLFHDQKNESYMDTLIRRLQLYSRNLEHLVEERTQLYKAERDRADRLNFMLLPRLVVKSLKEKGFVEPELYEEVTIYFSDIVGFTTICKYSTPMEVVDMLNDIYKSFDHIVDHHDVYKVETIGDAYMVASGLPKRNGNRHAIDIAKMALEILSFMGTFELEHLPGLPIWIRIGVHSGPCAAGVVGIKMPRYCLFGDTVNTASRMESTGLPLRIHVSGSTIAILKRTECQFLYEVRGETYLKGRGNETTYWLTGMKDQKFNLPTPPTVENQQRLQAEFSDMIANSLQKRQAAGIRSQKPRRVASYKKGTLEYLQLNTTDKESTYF
T1 sequence (P25092 other isoform, or with tags, fused parts or gaps): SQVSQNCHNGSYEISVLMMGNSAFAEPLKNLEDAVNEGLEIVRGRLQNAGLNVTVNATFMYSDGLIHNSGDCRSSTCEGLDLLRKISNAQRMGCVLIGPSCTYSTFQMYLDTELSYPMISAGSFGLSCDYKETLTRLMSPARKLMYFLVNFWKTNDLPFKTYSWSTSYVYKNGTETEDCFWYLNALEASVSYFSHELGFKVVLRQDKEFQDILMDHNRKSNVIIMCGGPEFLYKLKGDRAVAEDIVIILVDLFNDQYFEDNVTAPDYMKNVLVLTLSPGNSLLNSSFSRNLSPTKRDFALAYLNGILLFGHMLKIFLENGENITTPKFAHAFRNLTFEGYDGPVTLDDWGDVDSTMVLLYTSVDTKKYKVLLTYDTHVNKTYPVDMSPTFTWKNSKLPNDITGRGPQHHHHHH

B1: PF1608-hIgG1 (antibody, V domains shown)
VH: EVQLVESGGGLVQPGGSLRLSCAASGFTFSSYWMHWVRQAPGKGLEWIGEIKPSNELTNVHEKFKDRFTISVDKAKNSAYLQMNSLRAEDTAVYYCTRTITTTEGYWFFDVWGQGTLVTVSS
VL: DIQLTQSPSSLSASVGDRVTITCRASESVDYYGSSLLQWYQQKPGKAPKLLIYAASKLASGVPSRFSGSGSGTDFTLTISSLQPEDFATYYCQQTRKAYTFGQGTKLEIKR
notes: also called PF1608-hlgG1; positive control antibody
[1]
  EC50 (read off the curve): ~0.05 nM
[2]
  EC50 (read off the curve): ~0.05 nM
[3]
  EC50 (read off the curve): ~0.05 nM
[4]
  EC50 (read off the curve): ~0.05 nM
[5]
  EC50 (read off the curve): ~0.06 nM

B2: 5F9-hIgG1 (antibody, V domains shown)
VH: QVQLQQWGAGLLKPSETLSLTCAVFGGSFSGYYWSWIRQPPGKGLEWIGEINHRGNTNDNPSLKSRVTISVDTSKNQFALKLSSVTAADTAVYYCARERGYTYGNFDHWGQGTLVTVSS
VL: EIVMTQSPATLSVSPGERATLSCRASQSVSRNLAWYQQKPGQAPRLLIYGASTRATGIPARFSGSGSGTEFTLTIGSLQSEDFAVYYCQQYKTWPRTFGQGTNVEIKR
notes: also called positive control antibody
[6]
  EC50 (read off the curve): ~0.9 nM
[7]
  EC50 (read off the curve): ~1 nM
[8]
  EC50 (read off the curve): ~1 nM
[1]
  EC50 (read off the curve): ~0.04 nM
[2]
  EC50 (read off the curve): ~0.04 nM
[3]
  EC50 (read off the curve): ~0.04 nM
[4]
  EC50 (read off the curve): ~0.03 nM
[5]
  EC50 (read off the curve): ~0.04 nM
[9]
  EC50 (read off the curve): ~0.3 nM
[10]
  EC50 (read off the curve): ~0.3 nM
